The term Km denotes the substrate concentration at which the rate is half of its maximum. Usually Vmax stands for the top rate of the reaction or transport when substrate is in excess. The kcat is the number of substrate molecules converted per active site and unit of time at saturation. The term kcat/Km denotes the turnover number divided by the Michaelis constant.

The series deals with O=C(O)C(Cl)Cl. The series is described as follows: purified protein. The class given is biochemical, Synechocystis sp. PCC 6803. The following applies: 1 mM GSH, 0.05-1 mM DCA, 100 mM phosphate pH 7.4, 37 °C.

As for “sll1545 (Synechocystis sp. PCC 6803 substr. Kazusa)”, the Km was found to be 0.14 ± 0.02 mM, the Vmax is 11.8 µmol/min, the catalytic constant (kcat) was found to be 82.17 ± 0.23 s⁻¹ and the kcat/Km turned out to be 574600 ± 990 M⁻¹ s⁻¹.

Source of the values: publication PMC4309839, “Functional classification and biochemical characterization of a novel rho class glutathione S-transferase in Synechocystis PCC 6803” (FEBS Open Bio, 2014).
